The text below walks through data of patent US20200407445A1 (ITEOS THERAPEUTICS, published 2020).

Changes are numbered by the printed parent chain.

One assay concerns the target T1, Human TIGIT-His (human, UniProt Q495A1 22-141, biotinylated in the ForteBio Fab assay).
T1 construct: bought (Creative Biomart); also called Biotinylated Human TIGIT HIS; TIGIT-His monomer; not shown: His tag
T1 sequence (looked up): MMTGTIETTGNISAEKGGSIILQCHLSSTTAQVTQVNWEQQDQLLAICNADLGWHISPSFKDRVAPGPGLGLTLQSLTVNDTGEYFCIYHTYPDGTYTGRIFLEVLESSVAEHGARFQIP
Put plainly: ForteBio BLI, Fab KD, monovalent. (In general: In BLI a coated tip is dipped into the sample, and binding shifts an interference pattern.)

The target of a further assay is T2, Cyno TIGIT-Fc (cynomolgus, UniProt A0A7N9I9V4 89-209).
T2 construct: not shown: Fc part
Put plainly: ForteBio BLI, Fab KD, monovalent.

Another assay concerns the target T3, Mouse TIGIT-Fc (mouse, UniProt P86176 29-148, limits assumed).
T3 construct: not shown: Fc part
T3 sequence (looked up): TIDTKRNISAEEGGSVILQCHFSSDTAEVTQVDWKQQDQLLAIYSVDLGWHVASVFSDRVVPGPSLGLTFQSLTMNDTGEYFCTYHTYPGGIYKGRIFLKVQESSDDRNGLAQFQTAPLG
Put plainly: ForteBio BLI, Fab KD, monovalent.

Assay [1] addresses T4, human TIGIT expressed on cells (human, UniProt Q495A1 22-244).
T4 construct: whole, on cells; on Jurkat E6.1 cells transduced with human TIGIT, on Promega TIGIT Effector cells or on human primary T cells; the assay field says which; also called hTIGIT; Jurkat-hTIGIT
T4 sequence (looked up): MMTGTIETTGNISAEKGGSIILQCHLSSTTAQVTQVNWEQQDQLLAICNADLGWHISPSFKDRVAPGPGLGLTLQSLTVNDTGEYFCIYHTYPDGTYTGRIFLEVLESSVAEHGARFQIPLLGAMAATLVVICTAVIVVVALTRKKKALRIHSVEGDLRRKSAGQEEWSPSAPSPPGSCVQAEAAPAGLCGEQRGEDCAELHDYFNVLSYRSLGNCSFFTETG
Put plainly: flow cytometry, primary CD8+ T cells of healthy human PBMC, MFI. The procedure:
Isolated human PBMCs from healthy volunteers were analysed for binding by antagonist anti-TIGIT antibodies. Cells were distributed at 1×10⁵ cells per well. Cells were incubated with anti-CD16 (Clone 3G8, BioLegend 302002), CD32 (Clone FLI8.26, BD Bioscience 557333) and CD64 (BD Bioscience 555525) at room temperature for 10 min, and the indicated anti-human TIGIT antibody clones were directly added at a final concentration of 8; 4; 2; 1; 0.5; 0.25; 0.125; 0.062; 0.031; 0.016; 8×10⁻³ and 4×10⁻³ nM in FACS buffer and incubated for 20 min at 4° C. […] Then, cells were washed and incubated with the following antibodies and LVD mix: anti-CD4-PercP-Cy5.5 (clone A161A1, BioLegend 357414); anti-CD8-BV510 (clone SK1, BD Bioscience 563919) and LVD efluor 660 (eBioscience 65-0864-18).
The EC50 values for binding to CD8+ human primary T cells were calculated using the MFI signal on living TIGIT+CD8+ T cells.
(In general: In flow cytometry, cells or beads pass a laser one at a time.)

Assay [2] concerns the target T4, human TIGIT expressed on cells. Put plainly: flow cytometry, competition with CD155-His (15 ug/ml) on Jurkat-hTIGIT.
The target is the same in assay [3]. Put plainly: flow cytometry on Jurkat-hTIGIT. The procedure: Antibodies were incubated with the cells for 20 min at 4° C. in FACS buffer. […] Fluorescence intensity was analysed using LSR BD Fortessa and cell binding was recorded as the median fluorescence intensity of PE in cells expressing TIGIT at their surface.
The half-maximal concentration of binding (EC50) to Jurkat-hTIGIT was calculated using a four-variable curve-fit equation in Prism.

In assay [4] the target is T5, recombinant human TIGIT protein (construct not stated) (human, UniProt Q495A1 22-141, limits assumed).
T5 construct: also called hTIGIT (Creative Biomart); recombinant TIGIT protein
T5 sequence (looked up): T1 sequence (looked up)
Put plainly: Biacore T200, IgG captured by anti-human Fc, antigen in solution, 1:1 kinetic model. The procedure:
Biosensor analysis was conducted at 25° C. in a HBS-EP buffer system (10 mM HEPES pH 7.3, 150 mM NaCl, 3 mM EDTA, 0.05% Tween20) using Biacore T200 technology, CMS sensor chip (run at Novalix, France). The sample hotel was maintained at 8° C. Goat anti-human IgG capture antibody (Fcγ fragment specific, Jackson ImmunoResearch Laboratories) was immobilized (10000 RU) to both flow cells of the sensor chip using standard amine coupling chemistry. This surface type provided a format for reproducibly capturing fresh analysis antibody after each regeneration step. Flow cell 2 was used to analyse captured antibody while flow cell 1 was used as a reference flow cell. […] Two blank (buffer) injections also were run and used to assess and subtract system artefacts. The association (300 s) and dissociation (600 s) phases for all antigen concentrations were performed at a flow rate of 30 uL/min. The surface was regenerated with three sequential injections (15 s, 15 s and 60 s) of 10 mM glycine-HCl, pH 1.5. The obtained sensorgrams were fitted globally to a 1:1 model (assuming the same kinetic values for all applied concentrations).
(SPR reads the build-up and loss of mass on a sensor chip optically.)

Assay [5] addresses T4, human TIGIT expressed on cells. Put plainly: flow cytometry, primary CD8+ T cells of cancer patients' PBMC, MFI. The procedure: Cells were distributed at 1×10^5 cells per well. […] Then, cells were washed and incubated with the following antibodies and life viability dye (LVD) mix: anti-CD4-PercP-Cy5.5 (clone A161A1, BioLegend 357414); anti-CD8-BV510 (clone SK1, BD Bioscience 563919) and LVD efluor 520 (eBioscience 65-0867-14). Cells were washed and fixed and surface staining was quantified using BD LSR Fortessa. Flow cytometry data was analysed using FlowJo V10.1. TIGIT MFI on gated LVD-TIGIT+CD8+ cells was used to calculate EC50 values.

Assay [6] shares this target. Put plainly: cell-based or functional assay.
Assay [7] has the same target. Put plainly: cell-based or functional assay. The source holds these as a separate data set.

T2 sequence (A0A7N9I9V4 entry or part of it): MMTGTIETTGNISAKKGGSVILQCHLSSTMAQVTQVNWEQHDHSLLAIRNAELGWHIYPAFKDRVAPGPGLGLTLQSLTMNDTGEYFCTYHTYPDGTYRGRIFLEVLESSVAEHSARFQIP

B1: Fab of anti-TIGIT clone 29513 (Fab, V domains shown)
VH: QVQLVQSGAEVKKPGSSVKVSCKASGGTFQNYAISWVRQAPGQGLEWMGVIVPIFGTANYAQKFQGRVTVTADESTSTAYMELSSLRSEDTAVYYCARLHLGQKAYYGMDVWGQGTTVTVSS
VL: DIQMTQSPSSLSASVGDRVTITCRASQSISSYLNWYQQKPGKAPKLLIYAASSLQSGVPSRFSGSGSGTDFTLTISSLQPEDFATYYCQQRYVFPPTFGGGTKVEIK
In general, Kd refers to the concentration at which binding is half-saturated. Consider B1, for which the Kd in the assay with Human TIGIT-His stood at 0.774 nM; in the assay with Cyno TIGIT-Fc, 9.56 nM; in the assay with Mouse TIGIT-Fc, 85.5 nM.

B2: Fab of anti-TIGIT clone 29523 (Fab, V domains shown)
VH: EVQLVESGGGVVQPGRSLRLSCAASGFTFGSYYMHWVRQAPGKGLEWVAVIWPDGSNKLYADSVKGRFTISRDNSKNTLYLQMNSLRAEDTALYYCAKPVPKSRALDVWGQGTMVTVSS
VL: DIQLTQSPSSVSASVGDRVTITCRASQGISSWLAWYQQKPGKAPKLLIYGASSLQSGVPSRFSGSGSGTDFTLTISSLQPEDFATYYCQQAFYLPWTFGGGTKVEIK
In the case of B2, the Kd with Human TIGIT-His was determined as 3.84 nM; with Cyno TIGIT-Fc, 27.9 nM; with Mouse TIGIT-Fc it was 18.9 nM.

B3: Fab of anti-TIGIT clone 29520 (Fab, V domains shown)
VH: QVQLVESGGGLVQPGRSLRLSCAASGFTFRDYAMHWVRQAPGKGLEWVSGITWNSGLIGYADSVKGRFTISRDNAKNSLYLQMNSLRAEDTALYYCAKPVPRLRGLDVWGQGTMVTVSS
VL: B2 VL
For B3, the Kd in the assay with Human TIGIT-His was 1.31 nM; with Cyno TIGIT-Fc, 2.68 nM; with Mouse TIGIT-Fc, 1.95 nM.

B4: Fab of anti-TIGIT clone 26493 (Fab, V domains shown)
VH: B3 VH with Q1E, R30G, L57S, R102K, L103S
VL: B2 VL
Take B4: the dissociation constant Kd with Human TIGIT-His was found to be 40.6 nM; in the assay with Mouse TIGIT-Fc, 26.7 nM. Also, in the assay with Cyno TIGIT-Fc, the binding result was “no binding”.

B5: Fab of anti-TIGIT clone 29527 (Fab, V domains shown)
VH: B2 VH with E1Q, G30S, Y32S, W52G, P53A, L59Y, K65E, K102R, S103R, A105G
VL: B2 VL
On to B5, for which the equilibrium dissociation constant (Kd) with Human TIGIT-His came to 1.33 nM; with Cyno TIGIT-Fc it was 17.6 nM; in the assay with Mouse TIGIT-Fc it was 20.2 nM.

B6: TIG1 (comparative anti-TIGIT antibody, human IgG1) (antibody, V domains shown)
VH: DVQLVESGGGLVQPGGSRKLSCAASGFTFSNFGMHWVRQAPEKGLEWVAFISSGSSSIYYADTVKGRFTISRDNPKNTLFLQMTSLRSEDTAMYYCARMRLDYYAMDYWGQGTSVTVSS
VL: DVQITQSPSYLAASPGETITINCRASKSISKYLAWYQEKPGKTNKLLIYSGSTLQSGIPSRFSGSGSGTDFTLTISSLEPEDFAMYYCQQHNEYPWTFGGGTKLEIK
notes: from WO2017/152088; made in HEK cells as human IgG1
By EC50 is commonly meant the concentration giving half of the maximal effect. Higher therefore signals lower potency in that assay. What is called IC50 is the concentration that inhibits the measured activity by half. Higher therefore signals weaker potency in that assay. As a reminder, the koff is the rate constant with which the complex falls apart. Turning to B6, in assay [1], the half-maximal effective concentration (EC50) came to 0.38 nM and the “Fold change of EC50 over EC50 of best clone (31282_wu)” value (shortened to “Fold change of EC50 … (31282_wu)”) amounted to 2 fold. Besides, in assay [2], the “Fold change of IC50 over IC50 of best clone (31282_up)” value was 1.6 fold and the IC50 turned out to be 0.06 nM. In assay [3], the 50% effective concentration (EC50) worked out at 0.17 nM and the “Fold change of EC50 … (31282_wu)” value is 1.6 fold. Moreover, in assay [4], the Kd is 2.49 nM and the koff was 0.0131 s⁻¹. Also, in assay [5], the EC50 was 0.33 nM and the “Fold change of EC50 over EC50 of best clone (31282)” value was 2.7 fold.

B7: Fab of anti-TIGIT clone 29478 (Fab, V domains shown)
VH: EVQLVESGGGVVQPGRSLRLSCAASGFTFESYGMVWVRQAPGKGLEWVASILYDGSNRYYADSVKGRFTVSRDNSKNTLYLQMNSLRAEDTAVYYCARVSYYYDSVELRWAEYFQHWGQGTLVTVSS
VL: EIVLTQSPATLSLSPGERATLSCRASQSVSSYLAWYQQKPGQAPRLLIYDASKRATGIPARFSGSGSGTDFTLTISSLEPEDFAVYYCQQVHNFPLTFGGGTKVEIK
Turning to B7, the Kd is 0.703 nM with Human TIGIT-His, 1.26 nM with Cyno TIGIT-Fc and 91.8 nM in the assay with Mouse TIGIT-Fc.

B8: 22G2 (comparative anti-TIGIT antibody, human IgG1) (antibody, V domains shown)
VH: QVHLQESGPGLVKPSETLSLTCTVSGGSVSSGIYYWSWIRQPPGKGLEWIGYIYYSGSTNYNPSLKSRVTISVDTSKNQFSLKLSSVTAADTAVYYCARDYYVSGNYYNVDYYFFGVDVWGQGTTVTVSS
VL: EIVLTQSPATLSLSPGERATLSCRASQSVSSYLAWYQQKPGQAPRLLIYDASNRATGIPARFSGSGSGTDFTLTISSLEPEDFAVYYCQQRSNWPPLFTFGPGTKVDIK
notes: from WO2016/106302; made in HEK cells as human IgG1
As for B8, in [1], the EC50 came to 1.17 nM and the “Fold change of EC50 … (31282_wu)” value turned out to be 6.1 fold. Besides, in assay [2], the “Fold change of IC50 over IC50 of best clone (31282_up)” value was 2.2 fold and the IC50 turned out to be 0.09 nM. Besides, in [3], the EC50 stood at 0.32 nM and the “Fold change of EC50 … (31282_wu)” value worked out at 3 fold. For the same molecule, in assay [4], the Kd worked out at 0.071 nM and the dissociation rate constant (koff) is 0.000178 s⁻¹. Besides, in assay [5], the EC50 is 0.37 nM and the “Fold change of EC50 over EC50 of best clone (31282)” value turned out to be 3.1 fold. In addition, in assay [6], the “EC50 (nM), IFNg, human primary CD8+ T cells” value worked out at 0.41 nM; the “Fold change of EC50 … (31282_wu)” value was determined as 3.1 fold; the “Induction over isotype control (fold change), IFNg, human primary CD8+ T cells + CD155 aAPC/CHO-K1” value is 1.5 fold. In assay [7], the “EC50 (nM), luciferase, Jurkat-hTIGIT” value came out at 5.2 nM; the “Fold change of EC50 over EC50 of best clone (31282_up)” value came out at 1.6 fold; the “Induction over Isotype control (fold change), luciferase, Jurkat-hTIGIT + CD155 aAPC/CHO-K1” value worked out at 5.3 fold.

B9: Fab of anti-TIGIT clone 26432 (Fab, V domains shown)
VH: QVQLVQSGAEVKKPGSSVKVSCKASGGTFSSYAISWVRQAPGQGLEWMGGIIPIFGTANYAQKFQGRVTITADESTSTAYMELSSLRSEDTAVYYCAREAQSYRVPFDIWGQGTMVTVSS
VL: EIVMTQSPATLSVSPGERATLSCRASQSVSSNLAWYQQKPGQAPRLLIYGASTRATGIPARFSGSGSGTEFTLTISSLQSEDFAVYYCQQYAIWPPFTFGGGTKVEIK
Turning to B9, the Kd with Human TIGIT-His is 13.1 nM. For the same molecule, the binding result with Cyno TIGIT-Fc and with Mouse TIGIT-Fc was “no binding” in each case.
